Test results published in US20250163167A1 (SYNTHEKINE, published 2025).

T1: human IL-10 receptor (hIL-10R alpha and beta chains) on HEK-Blue IL-10 reporter cells (human, UniProt Q13651 22-578; Q08334 20-325)
T1 sequence 1: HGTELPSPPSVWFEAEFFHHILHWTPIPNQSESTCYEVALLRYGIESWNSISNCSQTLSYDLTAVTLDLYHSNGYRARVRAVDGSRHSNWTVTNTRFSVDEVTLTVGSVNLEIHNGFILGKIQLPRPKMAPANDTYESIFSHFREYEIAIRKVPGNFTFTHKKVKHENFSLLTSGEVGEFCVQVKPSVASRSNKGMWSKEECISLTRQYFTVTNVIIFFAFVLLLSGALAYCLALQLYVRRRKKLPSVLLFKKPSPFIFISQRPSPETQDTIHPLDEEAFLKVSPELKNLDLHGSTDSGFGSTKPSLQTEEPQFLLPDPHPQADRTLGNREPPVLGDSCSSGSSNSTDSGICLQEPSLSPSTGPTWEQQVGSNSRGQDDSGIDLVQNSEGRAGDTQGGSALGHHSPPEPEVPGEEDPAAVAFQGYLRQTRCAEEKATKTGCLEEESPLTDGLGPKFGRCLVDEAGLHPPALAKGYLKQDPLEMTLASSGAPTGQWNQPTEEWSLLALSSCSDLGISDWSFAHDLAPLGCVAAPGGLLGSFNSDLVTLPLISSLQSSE
T1 sequence 2: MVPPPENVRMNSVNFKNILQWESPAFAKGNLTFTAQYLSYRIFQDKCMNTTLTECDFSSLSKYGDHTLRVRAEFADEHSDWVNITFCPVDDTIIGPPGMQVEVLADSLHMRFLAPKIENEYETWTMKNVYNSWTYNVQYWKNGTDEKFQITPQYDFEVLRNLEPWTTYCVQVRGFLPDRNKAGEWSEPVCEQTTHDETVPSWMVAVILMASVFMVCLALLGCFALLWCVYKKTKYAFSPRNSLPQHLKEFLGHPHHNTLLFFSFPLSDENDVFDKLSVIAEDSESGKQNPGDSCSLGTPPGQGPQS

B1: IL10R binding molecule of SEQ ID NO: 286 (bispecific antibody)
chain: QVQLQESGGGSVQAGGSLRLSCTVSGYTYSSNCMGWFRQAPGKEREGVATIYTGGGNTYYADSVKGRFTISQDNAKNTVYLQMNNLKPEDTAMYYCAAEPLSRVYGGSCPTPTFDYWGQGTQVTVSSGGGSQVQLQESGGGSVQAGGSLRLSCAASRYTYNSYCMGWFRQAPGKEREGVATIDSDGMTRYADSVKGRFTISKDNAKNTLYLQMNSLKPEDTAMYYCAADADCTIAAMTTNPLGQGTQVTVSSASHHHHHH
B2: IL10R binding molecule of SEQ ID NO: 287 (bispecific antibody)
chain: QVQLQESGGGSVQAGGSLRLSCTVSGYTYSSNCMGWFRQAPGKEREGVATIYTGGGNTYYADSVKGRFTISQDNAKNTVYLQMNNLKPEDTAMYYCAAEPLSRVYGGSCPTPTFDYWGQGTQVTVSSGGGSQVQLQESGGGSVQAGGSLRLSCTVSRYTASVNYMGWFRQAPGKEREGVATIFTGAGTTYYANSVKGRFTISRDNAKNTAYLQMNSLKPEDTAIYYCAVDFRGGLLYRPAYEYTYRGQGTQVTVSSASHHHHHH
B3: IL10R binding molecule of SEQ ID NO: 288 (bispecific antibody)
chain: QVQLQESGGGSVQAGGSLRLSCTVSGYTYSSNCMGWFRQAPGKEREGVATIYTGGGNTYYADSVKGRFTISQDNAKNTVYLQMNNLKPEDTAMYYCAAEPLSRVYGGSCPTPTFDYWGQGTQVTVSSGGGSQVQLQESGGGSVEAGGSLRLSCAASGYTHSSYCMGWFRQAPGKEREGVAAIDVDGSTTYADSVKGRFTISKDNAKNTLYLQMNSLKPEDTGMYYCAAEFADCSSNYFLPPGAVRYWGQGTQVTVSSASHHHHHH
B4: IL10R binding molecule of SEQ ID NO: 289 (bispecific antibody)
chain: QVQLQESGGGSVQAGGSLRLSCTVSGYTYSSNCMGWFRQAPGKEREGVATIYTGGGNTYYADSVKGRFTISQDNAKNTVYLQMNNLKPEDTAMYYCAAEPLSRVYGGSCPTPTFDYWGQGTQVTVSSGGGSQVQLQESGGGSVQAGGSLRLSCAASGYSYSSYCMGWFRQAPGKEREGVATIDSDGMTRYADSVKGRFTISKDNAKNTLYLQMNSLKPEDTAMYYCAAPLYDCDSGAVGRNPPYWGQGTQVTVSSASHHHHHH
B5: IL10R binding molecule of SEQ ID NO: 258 (bispecific antibody)
chain: QVQLQESGGGSVQAGGSLRLSCAASRYLYSIDYMAWFRQSPGKEREPVAVIYTASGATFYPDSVKGRFTISQDNAKMTVYLQMNSLKSEDTAMYYCAAVRKTDSYLFDAQSFTYWGQGTQVTVSSGGGSQVQLQESGGGSVQAGGSLRLSCAASRYTYNSYCMGWFRQAPGKEREGVATIDSDGMTRYADSVKGRFTISKDNAKNTLYLQMNSLKPEDTAMYYCAADADCTIAAMTTNPLGQGTQVTVSSASHHHHHH
B6: IL10R binding molecule of SEQ ID NO: 290 (bispecific antibody)
chain: QVQLQESGGGSVQAGGSLRLSCTVSGYTYSSNCMGWFRQAPGKEREGVATIYTGGGNTYYADSVKGRFTISQDNAKNTVYLQMNNLKPEDTAMYYCAAEPLSRVYGGSCPTPTFDYWGQGTQVTVSSGGGSQVQLQESGGGSVQTGGSLRLSCAASGYTYLRGCMGWFRQAPGKEREGVAVMDVVGDRRSYIDSVKGRFTISRDNAANSVYLQMDNLKPEDTAMYYCTAGPNCVGWRSGLDYWGQGTQVTVSSASHHHHHH
B7: IL10R binding molecule of SEQ ID NO: 291 (bispecific antibody)
chain: QVQLQESGGGSVQAGGSLRLSCGASGYTYSSYCMGWFRQVPGKEREGVAVIDSDGSTSYADSVKGRFTISKDNGKNTLYLQMNSLKPEDTAMYYCAADLGHYRPPCGVLYLGMDYWGKGTQVTVSSGGGSQVQLQESGGGSVQAGGSLRLSCAASGYTYSSGCMGWFRQAPGKEREAVAAINSDGSTSYADSVKGRFTISKDNAKNTLYLQMNSLKPEDTAMYYCAAEPYCSGGYPRWSVAEFGYWGQGTQVTVSSASHHHHHH
B8: IL10R binding molecule of SEQ ID NO: 292 (bispecific antibody)
chain: QVQLQESGGGSVQAGGSLRLSCGASGYTYSSYCMGWFRQVPGKEREGVAVIDSDGSTSYADSVKGRFTISKDNGKNTLYLQMNSLKPEDTAMYYCAADLGHYRPPCGVLYLGMDYWGKGTQVTVSSGGGSQVQLQESGGGSVQAGGSLRLSCAASGYTYSSYCMGWFRQAPGKEREGVAHIDSDGSTSYADSVKGRFTISKDNAKNTLYLQMNSLKPEDTAMYYCAADPIPGPGYCDGGPNKYWGQGTQVTVSSASHHHHHH
B9: IL10R binding molecule of SEQ ID NO: 293 (bispecific antibody)
chain: QVQLQESGGGSVQAGGSLRLSCGASGYTYSSYCMGWFRQVPGKEREGVAVIDSDGSTSYADSVKGRFTISKDNGKNTLYLQMNSLKPEDTAMYYCAADLGHYRPPCGVLYLGMDYWGKGTQVTVSSGGGSQVQLQESGGGSVQAGGSLRLSCAASRYTYNSYCMGWFRQAPGKEREGVATIDSDGMTRYADSVKGRFTISKDNAKNTLYLQMNSLKPEDTAMYYCAADADCTIAAMTTNPLGQGTQVTVSSASHHHHHH
B10: IL10R binding molecule of SEQ ID NO: 294 (bispecific antibody)
chain: QVQLQESGGGSVQAGGSLRLSCGASGYTYSSYCMGWFRQVPGKEREGVAVIDSDGSTSYADSVKGRFTISKDNGKNTLYLQMNSLKPEDTAMYYCAADLGHYRPPCGVLYLGMDYWGKGTQVTVSSGGGSQVQLQESGGGSVQAGGSLRLSCTVSRYTASVNYMGWFRQAPGKEREGVATIFTGAGTTYYANSVKGRFTISRDNAKNTAYLQMNSLKPEDTAIYYCAVDFRGGLLYRPAYEYTYRGQGTQVTVSSASHHHHHH
B11: IL10R binding molecule of SEQ ID NO: 295 (bispecific antibody)
chain: QVQLQESGGGSVQAGGSLRLSCGASGYTYSSYCMGWFRQVPGKEREGVAVIDSDGSTSYADSVKGRFTISKDNGKNTLYLQMNSLKPEDTAMYYCAADLGHYRPPCGVLYLGMDYWGKGTQVTVSSGGGSQVQLQESGGGSVEAGGSLRLSCAASGYTHSSYCMGWFRQAPGKEREGVAAIDVDGSTTYADSVKGRFTISKDNAKNTLYLQMNSLKPEDTGMYYCAAEFADCSSNYFLPPGAVRYWGQGTQVTVSSASHHHHHH
B12: IL10R binding molecule of SEQ ID NO: 296 (bispecific antibody)
chain: QVQLQESGGGSVQAGGSLRLSCGASGYTYSSYCMGWFRQVPGKEREGVAVIDSDGSTSYADSVKGRFTISKDNGKNTLYLQMNSLKPEDTAMYYCAADLGHYRPPCGVLYLGMDYWGKGTQVTVSSGGGSQVQLQESGGGSVQAGGSLRLSCAASGYSYSSYCMGWFRQAPGKEREGVATIDSDGMTRYADSVKGRFTISKDNAKNTLYLQMNSLKPEDTAMYYCAAPLYDCDSGAVGRNPPYWGQGTQVTVSSASHHHHHH
B13: IL10R binding molecule of SEQ ID NO: 297 (bispecific antibody)
chain: QVQLQESGGGSVQAGGSLRLSCGASGYTYSSYCMGWFRQVPGKEREGVAVIDSDGSTSYADSVKGRFTISKDNGKNTLYLQMNSLKPEDTAMYYCAADLGHYRPPCGVLYLGMDYWGKGTQVTVSSGGGSQVQLQESGGGSVQTGGSLRLSCAASGYTYLRGCMGWFRQAPGKEREGVAVMDVVGDRRSYIDSVKGRFTISRDNAANSVYLQMDNLKPEDTAMYYCTAGPNCVGWRSGLDYWGQGTQVTVSSASHHHHHH
B14: IL10R binding molecule of SEQ ID NO: 298 (bispecific antibody)
chain: QVQLQESGGGSVQAGGSLRLSCAASGYSNCSYDMTWYRQAPGKEREFVSAIHSDGSTRYADSVKGRFFISQDNAKNTVYLQMNSLKPEDTAMYYCKTDPLHCRAHGGSWYSVRANYWGQGTQVTVSSGGGSQVQLQESGGGSVQAGGSLRLSCAASGYTYSSGCMGWFRQAPGKEREAVAAINSDGSTSYADSVKGRFTISKDNAKNTLYLQMNSLKPEDTAMYYCAAEPYCSGGYPRWSVAEFGYWGQGTQVTVSSASHHHHHH
B15: IL10R binding molecule of SEQ ID NO: 299 (bispecific antibody)
chain: QVQLQESGGGSVQAGGSLRLSCAASGYSNCSYDMTWYRQAPGKEREFVSAIHSDGSTRYADSVKGRFFISQDNAKNTVYLQMNSLKPEDTAMYYCKTDPLHCRAHGGSWYSVRANYWGQGTQVTVSSGGGSQVQLQESGGGSVQAGGSLRLSCAASGYTYSSYCMGWFRQAPGKEREGVAHIDSDGSTSYADSVKGRFTISKDNAKNTLYLQMNSLKPEDTAMYYCAADPIPGPGYCDGGPNKYWGQGTQVTVSSASHHHHHH
B16: IL10R binding molecule of SEQ ID NO: 300 (bispecific antibody)
chain: QVQLQESGGGSVQAGGSLRLSCAASGYSNCSYDMTWYRQAPGKEREFVSAIHSDGSTRYADSVKGRFFISQDNAKNTVYLQMNSLKPEDTAMYYCKTDPLHCRAHGGSWYSVRANYWGQGTQVTVSSGGGSQVQLQESGGGSVQAGGSLRLSCAASRYTYNSYCMGWFRQAPGKEREGVATIDSDGMTRYADSVKGRFTISKDNAKNTLYLQMNSLKPEDTAMYYCAADADCTIAAMTTNPLGQGTQVTVSSASHHHHHH

Biological target: T1, human IL-10 receptor (hIL-10R alpha and …)
Assay: cell-based or functional assay

Binder | Abs 630 (25 nM) | Abs 630 (100 nM)
B1 | 0.46 Abs 630 | 0.39 Abs 630
B2 | 0.9 Abs 630 | 0.51 Abs 630
B3 | 0.5 Abs 630 | 0.44 Abs 630
B4 | 0.48 Abs 630 | 0.39 Abs 630
B5 | 0.49 Abs 630 | 0.38 Abs 630
B6 | 0.49 Abs 630 | 0.37 Abs 630
B7 | 1.73 Abs 630 | 0.59 Abs 630
B8 | 0.78 Abs 630 | 0.47 Abs 630
B9 | 0.54 Abs 630 | 0.43 Abs 630
B10 | 0.49 Abs 630 | 0.39 Abs 630
B11 | 0.72 Abs 630 | 0.46 Abs 630
B12 | 0.54 Abs 630 | 0.38 Abs 630
B13 | 0.46 Abs 630 | 0.36 Abs 630
B14 | 0.84 Abs 630 | 0.38 Abs 630
B15 | 0.47 Abs 630 | 0.37 Abs 630
B16 | 2.08 Abs 630 | 2.11 Abs 630
